The text below walks through data of article PMC5972394.

This test concerns the target Mycobacterium thermoresistible (Mth) IMPDH ΔCBS (Mycobacterium thermoresistible). Kind of test: crystal structure.

The term stoichiometry N denotes the number of molecules, sites or subunits per partner or assembly. For “Mycobacterium thermoresistible (Mth) IMPDH ΔCBS (enzyme)”, the stoichiometry N came to 4.
